The term Kd denotes the free concentration of one partner at which half of the binding sites on the other are occupied at equilibrium, for simple one-to-one binding.

Here are results for two molecules from US20100021421A1 (MCGILL UNIVERSITY, published 2010).

Test [1] concerns the target T1, recombinant mouse IL-15Ralpha-Fc (mouse), Q60819.
T1 chain: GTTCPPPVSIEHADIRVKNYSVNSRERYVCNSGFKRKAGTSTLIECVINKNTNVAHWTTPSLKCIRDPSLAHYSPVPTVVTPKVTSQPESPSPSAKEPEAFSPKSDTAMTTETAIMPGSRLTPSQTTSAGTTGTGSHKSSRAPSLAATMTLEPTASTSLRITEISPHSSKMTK
Description: SPR (BIACORE 3000), rIL-15Rα-Fc amine-coupled to CM5 chip, analyte injected, 1:1 interaction model; rIL-15 as analyte. The note with it: remark: other sources report otherwise.

Test [2] deals with T2, recombinant mouse IL-15Ralpha-Fc (mouse, UniProt Q60819 33-205).
T2 construct: Bought from R&D Systems and amine-coupled to a CM5 chip (1300 RU); also called rmIL-15Rα-Fc; rIL-15Rα-Fc; not shown: Fc part of the commercial fusion
T2 sequence (looked up): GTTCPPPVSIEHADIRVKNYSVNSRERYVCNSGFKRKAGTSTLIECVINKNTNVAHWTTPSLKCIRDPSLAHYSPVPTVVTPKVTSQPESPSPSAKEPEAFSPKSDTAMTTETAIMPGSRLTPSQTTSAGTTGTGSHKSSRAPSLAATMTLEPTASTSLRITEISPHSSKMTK
Description: SPR (BIACORE 3000), rIL-15Rα-Fc amine-coupled to CM5 chip, analyte injected, 1:1 interaction model; purified GIFT15 as analyte. The method, then:
mGIFT15 was purified by immunoaffinity column packed using CNBr-sepharose (Amersham, N.J., USA) according to manufacturer's instructions. The binding interaction between mGIFT15 and rmIL-15Rα-Fc was examined in real-time using a BIACORE 3000 with research-grade CM5 sensor chips (Biacore AB, Uppsala, Sweden). Based on the manufacturer's recommendations, active CM5 surfaces were prepared by immobilizing rIL-15Rα-Fc (10 μg/mL in 10 mM sodium acetate pH 5.0) using the Amine Coupling Kit (Biacore AB) and HBS-M running buffer. Corresponding reference surfaces were prepared in the similar manner in the absence of any ligand. As a positive control, rIL-15 was injected at 50 μL/min (180 sec association+180 sec dissociation) over the reference and amine-coupled rIL-15Rα-Fc surfaces (1300 RU). Regeneration was achieved using two 30 second pulses of HBS-M containing 0.5 M NaCl, 50 mM EDTA, and 0.05% (v/v) TritonX-100 or Empigen. For the test sample, purified mGIFT15 was injected over the same sensor chip surfaces and regenerated in an identical manner. All binding data presented were “double-referenced” and analyzed according to a 1:1 interaction model using BIAevaluation 4.1 (Biacore AB).

B1: recombinant mouse IL-15, P48346 49-162 (ligand, UniProt P48346 49-162, looked up)
chain: NWIDVRYDLEKIESLIQSIHIDTTLYTDSDFHPSCKVTAMNCFLLELQVILHEYSNMTLNETVRNVLYLANSTLSSNKNVAESGCKECEELEEKTFTEFLQSFIRIVQMFINTS
As for B1, the Kd in test [1] amounted to 3 nM.

B2: mouse GM-CSF and IL-15 fusion protein (fusokine) mGIFT15 (ligand)
chain: APTRSPITVTRPWKHVEAIKEALNLLDDMPVTLNEEVEVVSNEFSFKKLTCVQTRLKIFEQGLRGNFTKLKGALNMTASYYQTYCPPTPETDCETQVTTYADFIDSLKTFLTDDPGRRAIMKILKPYMRNTSISCYLCFLLNSHFLTEAGIHVFILGCVSVGLPKTEANWIDVRYDLEKIESLIQSIHIDTTLYTDSDFHPSCKVTAMNCFLLELQVILHEYSNMTLNETVRNVLYLANSTLSSNKNVAESGCKECEELEEKTFTEFLQSFIRIVQMFINTS
notes: also called purified GIFT15; purified mGIFT15
Turning to B2, the Kd in test [2] came to 1.4 nM.
